Reverse-splicing fitness data for 83 variants are collected here from the RNAGym collection of RNA variant scans (doi:10.1093/molbev/msab373).

B1: Azoarcus group I ribozyme (parent)
chain: GUGCCUUGCGCCGGGAAACCACGCAAGGGAUGGUGUCAAAUUCGGCGAAACCUAAGCGCCCGCCCGGGCGUAUGGCAACGCCGAGCCAAGCUUCGGCGCCUGCGCCGAUGAAGGUGUAGAGACUAGACGGCACCCACCUAAGGCAAACGCUAUGGUGAAGGCAUAGUCCAGGGAGUGGCGAAAGUCACACAAACCGG

The variants in the data set derive from B1. Nature of the data set: reverse-splicing fitness (ratio to wild type); higher = more active; in vitro selection; Mg2+ level not given. Summed up:
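An in vitro group I ribozyme library with randomized positions was T7-transcribed and gel-purified. In triplicate, 10 pmol RNA in EPPS pH 7.5 was reacted with 50 pmoles of a 30-nt RNA substrate for 1 h at 37 °C across several added MgCl2 levels (1–48 mM), then stopped with EDTA. Products were reverse transcribed from a substrate-complementary primer, PCR-amplified and sequenced (HiSeq 4000). Fitness is a variant's read proportion after selection over that before, normalised to wild type.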
In the case of A111U A120G A145G C150U C169G U176A, the reverse-splicing fitness is 0.0272.
C82A A120U C150A C169G U176A: the reverse-splicing fitness came to 0.00593.
Then C82A A120U C150A C169G U176G, with 0.00162; and C82A A120G A145G C150U C169G U176C, with 0.0199.
With C82A A111C A145C C150A C169A U176G the figure was 0.0103.
Then A111C A145G C150U C169A U176C, with 0.0152; and A111U A120G A145C C150G, with 0.0213; and A111G A120C A145G C150U C169G, with 0.0142.
Take C82U A111C A120U A145G C150G C169G: the reverse-splicing fitness stood at 0.00651.
With C82U A111C A145C C150U C169G, the reverse-splicing fitness was found to be 0.00727.
For the variant A120C A145G C150U C169U U176C, the reverse-splicing fitness was 0.186.
Then C82U A111U A120C C150G C169U U176C, with 0.0149; and C82G A111U A120G A145G C169U U176C, with 0.0161.
Then C82U A111U A120U C169A U176C, with 0.00317; and A120U C150A U176A, with 0.178.
For the variant C82A A111U A120U A145G C169G U176C, the reverse-splicing fitness worked out at 0.00486.
Regarding C82U A120C A145G C150A C169A U176C, the reverse-splicing fitness came to 0.0203.
Then C82A A111U C169U U176C, with 0.0132.
With C82A A120C A145G C150U U176C the figure was 0.0551; with C82A A111C A120C C150G U176G, 0.00353.
Then C82U A111U C150U C169A U176G, with 0.00643; and C82G A111C A120C A145G C150A C169U U176G, with 0.00795.
For the variant C82G A111C A120G A145U C169A, the reverse-splicing fitness was 0.00975.
C82G A111C A120C C150G C169G U176C: the reverse-splicing fitness was 0.00766.
In the case of C82A A111U A120C, the reverse-splicing fitness worked out at 0.0268.
With C82A A111G A145C C150G C169G U176G the figure was 0.00649; with C82G A145U C150U U176A, 0.236.
On to A111G A120C A145C C150U C169A U176C, for which the reverse-splicing fitness was determined as 0.00426.
With C82G A111U A120C A145C C150G C169A U176A the figure was 0.0101; with C82U A111G A120C A145U C169U U176G, 0.00307.
With A111C A120C A145U C150G C169G U176C the figure was 0.00645.
With C82A A111C A120G A145G C150G U176A, the reverse-splicing fitness was 0.00663.
Then C82G A120C A145G C150U U176G, with 0.0154; and C82U A111U A120G A145U C150G C169A U176C, with 0.00812; and C82G A111G A120U A145G C150G C169U U176G, with 0.00375.
Then A120C A145G C150A C169A U176A, with 0.0168; and C82G A111G A145U C150G C169A U176A, with 0.0126.
Turning to A120G C150U U176C, the reverse-splicing fitness came out at 0.164.
Regarding A145G C169A, the reverse-splicing fitness was found to be 0.172.
Then A111G A120C A145C C150G C169A U176A, with 0.00532; and C82U A111G A120C A145U C150G C169U U176A, with 0.00625.
With C82G A111G A120C A145U the figure was 0.0901; with A111U A120C A145C C150G C169A, 0.00818.
For the variant A111C A120G C169A U176G, the reverse-splicing fitness amounted to 0.00418.
With C82U A120C C150A C169U U176G the figure was 0.00498; with A111G A145G C169A U176C, 0.036.
With C82A A145U C150A U176G the figure was 0.0181; with C82G A111G A120G A145G C169G, 0.0197; with C82G A111G A120G A145G C169U, 0.0134.
With C82U A111U A120U A145G C150G C169U U176C the figure was 0.0058; with C82G A111G A120U A145G C150U C169G U176G, 0.00241; with C82A A145C C150A C169G U176A, 0.0232.
For C82A A111G A120G A145C C150U U176C, the reverse-splicing fitness stood at 0.0104.
Turning to C82G A111U A120C A145U C150G C169A, the reverse-splicing fitness turned out to be 0.00911.
Regarding C82G A111C A120U A145U C150A, the reverse-splicing fitness came to 0.00799.
In the case of A111G A120U C150U C169U U176G, the reverse-splicing fitness is 0.0032.
In the case of A111G U176A, the reverse-splicing fitness turned out to be 0.794.
With C82A A120U C150U C169U U176G the figure was 0.00199; with C82A A120U C169G U176A, 0.00261; with C82U A111G A120U A145C C150A C169A U176C, 0.00185.
As for A111C A120G C150U C169G U176C, the reverse-splicing fitness is 0.0349.
With C82U A111C A120U C150A U176G the figure was 0.00295; with C82A A145U C169A U176G, 0.00484; with C82A A111G A120U A145G C150G C169G U176G, 0.00316.
Then C82G C150A C169G U176G, with 0.00539; and C82A A111U A120C A145U C150U C169G U176G, with 0.00736.
Turning to C82U A111G A145C U176A, the reverse-splicing fitness worked out at 0.178.
With C82U A111G A120G A145U C150U the figure was 0.0126; with A120C A145C C150G C169U U176C, 0.0503.
On to A120C A145G C150U C169A U176G, for which the reverse-splicing fitness was found to be 0.00444.
Then C82A A111G A145G C150A C169G U176A, with 0.0224; and C82U A111G A145C C150A C169A, with 0.0083.
On to C82A A111G A120C A145U C169A U176G, for which the reverse-splicing fitness came out at 0.00526.
With C82A A111C A120G A145C C150A C169A, the reverse-splicing fitness is 0.00794.
With C82G A145U C150A C169G, the reverse-splicing fitness amounted to 0.00669.
Regarding C82G A111U C150G, the reverse-splicing fitness came to 0.0227.
As to C82U, the reverse-splicing fitness worked out at 0.643.
Then A111G A120G C150A U176C, with 0.0301; and C82G A120G C150A C169A, with 0.0117.
In the case of A111G A120G C169G U176C, the reverse-splicing fitness was 0.119.
With A111U A120C A145U C150G C169U U176C the figure was 0.0166; with A120C A145U C150A C169U U176A, 0.0459.
As for C82U A111C A120G A145G U176G, the reverse-splicing fitness is 0.00476.
